# From the supplement of paper PMC9112550, “Optimization of the antimicrobial peptide Bac7 by deep mutational scanning” (BMC Biology, 2022)
# Tested on: Escherichia coli TOP10
# Assay: shrunken log2 fold change of peptide-encoding DNA abundance (4.5 h post-induction vs induction); higher = less antimicrobial activity (less host growth inhibition)
# Conditions: time post-induction: 4.5 h; library: site-saturation at positions 5, 18, 19, 20
# 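Note: peptides expressed intracellularly from a pBAD plasmid library in pooled LB shake-flask culture, induced with 0.3% L-arabinose, DNA abundance read by NGS, three biological replicates, DESeq2 with apeglm shrinkage.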
row,Sequence,shrunken log2 fold change
1,RRIRFRPPRLPRPRPRPKVSPRP,0.00612
2,RRIRCRPPRLPRPRPRPGIFPRP,0.0252
3,RRIRSRPPRLPRPRPRPKVAPRP,0.509
4,RRIRMRPPRLPRPRPRPNHLPRP,-0.0575
5,RRIRSRPPRLPRPRPRPHLPPRP,-0.27
6,RRIRCRPPRLPRPRPRPVMQPRP,-0.166
7,RRIRDRPPRLPRPRPRPAITPRP,0.284
8,RRIRKRPPRLPRPRPRPCRVPRP,0.0931
9,RRIRFRPPRLPRPRPRPVMVPRP,-1.14
10,RRIRDRPPRLPRPRPRPGSQPRP,0.0966
11,RRIRFRPPRLPRPRPRPAKFPRP,-0.265
12,RRIRVRPPRLPRPRPRPQQCPRP,0.145
13,RRIRERPPRLPRPRPRPAVMPRP,0.0088
14,RRIRDRPPRLPRPRPRPYLEPRP,-0.0399
15,RRIRARPPRLPRPRPRPLTWPRP,0.272
16,RRIRQRPPRLPRPRPRPFVYPRP,-0.755
17,RRIRIRPPRLPRPRPRPSMEPRP,-0.343
18,RRIRPRPPRLPRPRPRPSKKPRP,-0.108
19,RRIRDRPPRLPRPRPRPFGRPRP,-0.0125
20,RRIRERPPRLPRPRPRPMRWPRP,0.472
21,RRIRGRPPRLPRPRPRPAIFPRP,0.583
22,RRIRWRPPRLPRPRPRPMYLPRP,-0.507
23,RRIRCRPPRLPRPRPRPKWRPRP,0.422
24,RRIRERPPRLPRPRPRPQACPRP,-0.0746
25,RRIRCRPPRLPRPRPRPEQFPRP,0.0372

row,Sequence,shrunken log2 fold change
1,RRIRCRPPRLPRPRPRPNCAPRP,0.00777
2,RRIRARPPRLPRPRPRPGADPRP,0.832
3,RRIRHRPPRLPRPRPRPLSFPRP,-0.137
4,RRIRKRPPRLPRPRPRPQWTPRP,0.0894
5,RRIRQRPPRLPRPRPRPRVIPRP,0.113
6,RRIRSRPPRLPRPRPRPEDPPRP,0.931
7,RRIRSRPPRLPRPRPRPVEHPRP,-0.16
8,RRIRKRPPRLPRPRPRPILTPRP,-0.149
9,RRIRGRPPRLPRPRPRPHGYPRP,-0.0362
10,RRIRGRPPRLPRPRPRPCSIPRP,0.0747
11,RRIRDRPPRLPRPRPRPCHCPRP,-0.158
12,RRIRRRPPRLPRPRPRPHMQPRP,0.0237
13,RRIRKRPPRLPRPRPRPSPKPRP,0.057
14,RRIRTRPPRLPRPRPRPAESPRP,0.0351
15,RRIRSRPPRLPRPRPRPALQPRP,0.441
16,RRIRIRPPRLPRPRPRPKIRPRP,-0.0911
17,RRIRHRPPRLPRPRPRPDVMPRP,-0.374
18,RRIRPRPPRLPRPRPRPFTHPRP,-0.466
19,RRIRSRPPRLPRPRPRPCHEPRP,0.0697
20,RRIRTRPPRLPRPRPRPVGNPRP,0.0924
21,RRIRWRPPRLPRPRPRPAQAPRP,0.237
22,RRIRQRPPRLPRPRPRPDWPPRP,0.416
23,RRIRGRPPRLPRPRPRPMCVPRP,0.723
24,RRIRRRPPRLPRPRPRPFMSPRP,-0.327
25,RRIRIRPPRLPRPRPRPRNLPRP,-0.306

row,Sequence,shrunken log2 fold change
1,RRIRTRPPRLPRPRPRPQVMPRP,-0.133
2,RRIRKRPPRLPRPRPRPVYMPRP,-0.082
3,RRIRVRPPRLPRPRPRPMLSPRP,-0.0455
4,RRIRPRPPRLPRPRPRPFGVPRP,-0.112
5,RRIRKRPPRLPRPRPRPLTYPRP,0.0522
6,RRIRPRPPRLPRPRPRPVWEPRP,-0.126
7,RRIRVRPPRLPRPRPRPEIPPRP,0.054
8,RRIRCRPPRLPRPRPRPPLVPRP,0.584
9,RRIRTRPPRLPRPRPRPWADPRP,0.015
10,RRIRDRPPRLPRPRPRPPLHPRP,0.177
11,RRIRGRPPRLPRPRPRPGYDPRP,0.371
12,RRIRYRPPRLPRPRPRPYKKPRP,-0.00195
13,RRIRPRPPRLPRPRPRPKWTPRP,-0.0336
14,RRIRWRPPRLPRPRPRPSQGPRP,0.27
15,RRIRNRPPRLPRPRPRPCSYPRP,-0.212
16,RRIRTRPPRLPRPRPRPFHAPRP,-0.0296
17,RRIRIRPPRLPRPRPRPFEEPRP,-0.569
18,RRIRLRPPRLPRPRPRPSVFPRP,-0.364
19,RRIRERPPRLPRPRPRPRMSPRP,-0.254
20,RRIRQRPPRLPRPRPRPDWKPRP,0.0112
21,RRIRKRPPRLPRPRPRPMRYPRP,0.239
22,RRIRWRPPRLPRPRPRPMRQPRP,-0.0376
23,RRIRSRPPRLPRPRPRPFLQPRP,-0.267
24,RRIRRRPPRLPRPRPRPWTCPRP,0.0743
25,RRIRARPPRLPRPRPRPFQCPRP,0.0143
